Results from publication PMC12758282.

Target: T1, RstA (Escherichia coli O157:H7 (EHEC; strain not given in the material)) (UniProt P52108)
T1 sequence: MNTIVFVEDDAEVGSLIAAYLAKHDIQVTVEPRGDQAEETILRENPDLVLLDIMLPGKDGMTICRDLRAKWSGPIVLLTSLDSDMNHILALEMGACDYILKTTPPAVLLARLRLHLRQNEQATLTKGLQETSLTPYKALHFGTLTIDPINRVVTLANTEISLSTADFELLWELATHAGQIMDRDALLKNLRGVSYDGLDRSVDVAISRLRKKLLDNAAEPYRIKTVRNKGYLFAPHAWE
Test: EMSA

## GTTATCGCAGGGAGCCACACAGCGTGTGTTGGACGCGACTCAGCTTTACCTTGGTGAGATTGGTTATTCACCACTGTTAACGGCCGAAGAAGAAGTTTATTTTGCGCGTCGCGCACTGCGTGGAGATGTCGCCTCTCGCCGCCGGATGATCGAGAGTAACTTGCGTCTGGTGGTAAAA (double strand) [rpoS fragment]
  binding: no binding
